Experiment in all cases: cell-based or functional assay
For test [1], the target named is human zalpha11 receptor, full-length, on cells (human) (UniProt Q9HBE5).
Test [2] concerns the target mouse zalpha11 receptor, on cells (mouse).
Test [3] concerns the target human zalpha11 Ligand (human) (UniProt Q9HBE4).
Sequence of UniProt Q9HBE4 (Q9HBE4 32-162 limits assumed, form in doubt): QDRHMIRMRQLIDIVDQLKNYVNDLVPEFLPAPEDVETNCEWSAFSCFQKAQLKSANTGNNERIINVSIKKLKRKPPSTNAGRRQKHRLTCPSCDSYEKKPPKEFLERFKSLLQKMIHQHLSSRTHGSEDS

Sequence of UniProt Q9HBE5 (Q9HBE5 20-538 limits assumed): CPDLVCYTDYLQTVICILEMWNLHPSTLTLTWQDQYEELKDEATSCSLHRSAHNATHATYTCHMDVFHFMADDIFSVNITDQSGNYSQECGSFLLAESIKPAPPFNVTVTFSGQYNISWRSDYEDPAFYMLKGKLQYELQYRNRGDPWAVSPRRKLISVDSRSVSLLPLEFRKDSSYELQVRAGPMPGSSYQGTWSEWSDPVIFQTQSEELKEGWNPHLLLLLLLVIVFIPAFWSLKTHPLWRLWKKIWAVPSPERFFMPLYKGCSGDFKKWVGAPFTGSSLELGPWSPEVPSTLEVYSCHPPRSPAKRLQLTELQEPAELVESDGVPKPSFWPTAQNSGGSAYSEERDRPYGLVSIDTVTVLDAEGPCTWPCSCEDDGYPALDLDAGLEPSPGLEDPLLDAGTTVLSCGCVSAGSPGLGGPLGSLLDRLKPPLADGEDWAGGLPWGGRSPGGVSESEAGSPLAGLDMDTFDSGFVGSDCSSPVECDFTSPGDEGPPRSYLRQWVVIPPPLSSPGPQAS

In test [1], mouse zalpha11 Ligand gave an STAT luciferase reporter response of BaF3/KZ134/Zalpha11 cells (fold over media-only control) of 40 and a proliferation of BaF3/Zalpha11 cells (Alamar Blue) (fold over background) of 5. In addition, in test [2], the STAT luciferase reporter response of untransfected BaF3/KZ134 control cells turned out to be 5 fold.
As to “soluble human zalpha11 receptor/human IL-2Rγ receptor heterodimer (hzalpha11/IgGγ1 + hIL-2Rγ/human κ light chain) (Fc fusion)”, in test [3], the inhibition of BaF3/zalpha11 proliferation (Alamar Blue), concentration completely inhibiting 3 ng/ml human zalpha11 Ligand came to 0.312 µg/mL and the potency in inhibiting human zalpha11 Ligand relative to the homodimeric soluble zalpha11 receptor (zalpha11-Fc4) was 30 to 100 fold.

For the origin of these results see US20020137677A1.
